# Reference: US20110076272A1, “THERAPEUTIC METHODS AND COMPOSITIONS” (priority 2009, published 2011)
# B1: AB0023: mouse anti-human LOXL2 monoclonal antibody; heavy chain variable region SEQ ID NO:1, light chain variable region SEQ ID NO:2 (antibody, listed as Mus musculus, V domains shown)
# VH: MEWSRVFIFLLSVTAGVHSQVQLQQSGAELVRPGTSVKVSCKASGYAFTYYLIEWVKQRPGQGLEWIGVINPGSGGTNYNEKFKGKATLTADKSSSTAYMQLSSLTSDDSAVYFCARNWMNFDYWGQGTTLTVSS
# VL: MRCLAEFLGLLVLWIPGAIGDIVMTQAAPSVSVTPGESVSISCRSSKSLLHSNGNTYLYWFLQRPGQSPQFLIYRMSNLASGVPDRFSGSGSGTAFTLRISRVEAEDVGVYYCMQHLEYPYTFGGGTKLEIK
# modifications: Heavy chain; Light chain
# Experiments:
# [1] = Repeat-dose tolerability in mice; conditions: 50 mg/kg twice per week for 14 weeks
# [2] = test system: MDA-MB-435 established primary tumors; assay: MDA-MB-435 established primary tumor xenograft model; format: in vivo, mouse; parameters: reduction in activated TAFs assessed by aSMA signal / reduction in VEGF signal versus vehicle-treated tumors / reduction in SDF-1/CXCL12 signal / reduction in LOXL2 signal: concentration or dose not given beside the values
# Experimental: To provide growing tumor tissue stock for subsequent orthotopic implantation, five- to six-week-old nude mice (NCr nu/nu) were injected subcutaneously with 2×10^6 MDA-MB-435-GFP cells (Anticancer, Inc., San Diego, Calif.) on the right flank. For this purpose, cultures of MDA-MB-435-GFP cells were harvested and dissociated by trypsinization, washed three times with cold serum-containing medium, and then kept on ice until injection. Cells were injected into the subcutaneous space of the flank of the animal in a total volume of 0.1 ml, within 30 min of harvesting. The nude mice were sacrificed to harvest tumor tissue 4 to 6 weeks after tumor cell injection for surgical orthotopic implantation (SOI) of tumor fragments.
# Tumor pieces (˜1 mm^3), extracted from subcutaneously-growing GFP-expressing breast tumors, were implanted by surgical orthotopic implantation (SOI) on the breast of female nude mice (NCr nu/nu). Treatments with AB0023 (anti-LOXL2 monoclonal antibody), M64 (anti-LOX monoclonal antibody) and vehicle (all via intraperitoneal injection) and with Taxotere (by intravenous injection) were initiated when the average primary tumor volume reached 75 mm^3. Mice were administered the antibodies at a dose of 30 mg/kg twice a week for 28 days and Taxotere, at 10 mg/kg, was administered once a week for 3 weeks.
# Body weight and tumor size were recorded weekly. At the conclusion of the study, mice were sacrificed by cervical dislocation after being anesthetized with carbon dioxide. Primary breast tumors were imaged, harvested, cut in half symmetrically and snap-frozen for histological and immunohistochemical analyses.
# The solutions used for the immunohistochemistry (IHC) protocols were obtained from Biocare Medical (Concord, Calif.) unless otherwise stated. All procedures were performed at room temperature. Slides were fixed with 4% PFA for 10 minutes and were subsequently treated with Peroxidazed-1 (Biocare Medical, Concord, Calif.) for 5 minutes. Then, the slides were background blocked with SNIPER (Biocare Medical, Concord, Calif.) for 10 minutes. Primary antibody (2-5 ug/ml final concentration) was diluted in Da Vinci Green Universal Diluent and applied to slides for 30 minutes. Slides were then rinsed in PBS-Tween-20. The Mach2 polymer kit was used for antigen detection by adding rabbit probe for 30 minutes. DAB chromagen was added to the slides for 3-5 minutes, then slides were rinsed once with deionized water. The slides were then counter-stained with hematoxylin, followed by dehydration with graded alcohol. The slides were mounted with entellan mounting medium (Electron Microscopy Sciences, Hatfield, Pa.).
# [3] = test system: Matrigel plug containing bFGF; assay: In vivo Matrigel plug angiogenesis assay; parameters: species or system mouse; conditions: 30 mg/kg i.p. twice weekly
# Experimental: Athymic female Ncr:Nu/Nu mice were injected subcutaneously in the flank with 0.5 ml high-concentration Matrigel (BD Biosciences, San Jose, Calif.) supplemented with 100 ng/ml FGF and 60 U heparin. Matrigel injections were conducted one week after initiation of treatments with antibodies). Antibodies (or PBST, as a control) were administered by intraperitoneal injection of 30 mg/kg twice weekly. Matrigel plugs were harvested 10 days after implantation by excising the plug together with attached skin, and were fixed in 10% neutral buffered formalin and embedded in paraffin. 5 um sections were cut and stained with hematoxylin and eosin, anti-CD31 or anti-CD34 antibodies to assess degree of vessel formation.
# HFF cells = assay: Transwell co-culture of HFF cells with LOXL2-secreting tumor cell lines; format: cell-based, human; conditions: 72 hours co-culture
# [4] = test system: fibroblasts or tumor cell lines; assay: Short-term growth factor signaling (TGFb, PDGF-BB) with or without AB0023; format: cell-based
# LOXL2 = target: T1, LOXL2 (Homo sapiens, UniProt Q9Y4K0); assay: Western blot analysis and ELISA of AB0023 specificity; format: binding
# T1 sequence (Q9Y4K0 26-774): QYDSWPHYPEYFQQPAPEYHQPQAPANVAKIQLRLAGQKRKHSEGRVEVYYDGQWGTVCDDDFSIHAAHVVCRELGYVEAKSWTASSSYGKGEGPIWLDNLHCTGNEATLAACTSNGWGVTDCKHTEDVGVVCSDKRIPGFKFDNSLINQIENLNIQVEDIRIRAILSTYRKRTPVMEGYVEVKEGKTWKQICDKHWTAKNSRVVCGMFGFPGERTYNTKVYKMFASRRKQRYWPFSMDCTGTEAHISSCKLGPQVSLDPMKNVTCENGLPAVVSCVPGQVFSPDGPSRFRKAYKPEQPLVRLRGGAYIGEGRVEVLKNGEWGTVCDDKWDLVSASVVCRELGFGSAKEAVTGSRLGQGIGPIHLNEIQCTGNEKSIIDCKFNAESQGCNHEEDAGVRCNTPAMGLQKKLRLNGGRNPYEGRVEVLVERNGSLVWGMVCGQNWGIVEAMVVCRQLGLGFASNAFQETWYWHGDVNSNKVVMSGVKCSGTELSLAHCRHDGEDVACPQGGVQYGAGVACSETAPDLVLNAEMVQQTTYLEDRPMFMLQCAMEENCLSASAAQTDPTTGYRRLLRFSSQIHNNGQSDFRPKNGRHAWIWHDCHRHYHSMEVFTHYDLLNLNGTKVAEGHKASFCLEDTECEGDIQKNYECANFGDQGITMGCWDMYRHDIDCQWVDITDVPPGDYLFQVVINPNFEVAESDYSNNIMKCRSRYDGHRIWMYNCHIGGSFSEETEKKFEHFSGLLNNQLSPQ
# Experimental: A mouse anti-human LOXL2 antibody (AB0023) was obtained by immunization with full-length LOXL2 protein and purified by SEC-HPLC (Tosoh TSKGEL G3000SWXL 7.8×300). Analytical size exclusion chromatography was used to assess antibody stability and purity. Purified AB0023 was run on SDS-PAGE Coomassie (Invitrogen BT 4-12% Gels) reducing and non-reducing gels to assess purity. Potency was examined by ELISA to determine Kd, and effect on LOXL2 enzymatic activity was determined using an Amplex Red Assay (Molecular Probes/Invitrogen, Carlsbad, Calif.). Antibody concentration was measured by absorbance at 280 nm using an Extinction Coefficient Abs 0.1% of 1.4. Identity was assayed by isoelectric focusing (Invitrogen pH 3-10 IEF Gels). For safety analysis, endotoxin levels were measured at a sensitivity range of 0.01-1 EU/ml (Charles River EndoSafe PTS).
# [5] = antibodies 30 mg/kg i.p. twice a week
# [6] = tissue-based ELISA, fibroblasts and tumor cells
molecule,measurement,setting,value
B1,tolerability,[1],well-tolerated
same,abundance of fibroblasts in tumors versus vehicle,[2]; H&E staining and other markers,less abundant overall
same,necrosis in tumors,"[2]; H&E, TNF-α IHC",significant regions of necrosis
same,reduction in LOXL2 signal,[2]; IHC of tumors,55%
same,reduction in SDF-1/CXCL12 signal,[2]; IHC of tumors,80%
same,reduction in VEGF signal versus vehicle-treated tumors,[2]; IHC of tumors,76%
same,decrease in tumor volume at week 3,[2]; [5],45%
same,decrease in tumor volume at week 5,[2]; [5],33%
same,levels of Beclin-1 (autophagy) in tumor cells,"[2]; mouse, in vivo",increased
same,"pyknosis, reduced viability of tumor cells","[2]; mouse, in vivo",pyknosis and increased cytoplasmic condensation of nuclei
same,levels of TGF-β1,[2]; [6],reduced
same,levels of phosphorylated SMAD2,[2]; [6],reduced
same,levels of connective tissue growth factor (CTGF),[2]; tumor tissue,reduced
same,"reduction in Sirius red staining (crosslinked collagen, desmoplasia)",[2]; tumors harvested at day 39,61%
same,reduction in activated TAFs assessed by aSMA signal,[2]; tumors harvested at day 39,88%
same,"reduction in tumor vasculature, CD31 signal",[2]; tumors harvested at day 39,74%
same,CD31 positive cells in the matrigel plugs,[3]; p=0.0168,significant decrease
same,reduction in average number of vessels in plugs versus vehicle,"[3]; plugs at day 10, p=0.0319",~7 fold
same,reduction in VEGF protein expression,HFF cells,39-46%
same,reduction in α-SMA levels,HFF cells,41%
same,relative decrease in pSMAD2 phosphorylation,HFF cells,56-94%
same,inhibition of SMAD2 phosphorylation (TGFb signaling),[4]; 10-60 minute time frame,10-20%
same,effect on AKT phosphorylation,"[4]; PDGF-BB, 10-60 minute time periods",No significant effects
same,cross-reactivity with other lysyl oxidase-type enzymes,LOXL2,no cross-reactivity
